Here are results for one molecule from article PMC6131548.

The assay deals with Tsr2 (in the ITC with yeast ESS2) (S. cerevisiae (yeast)) (UniProt Q06672). Description: ITC; VP-ITC; 20–40 µM Tsr2 variant in the cell, 400–800 µM ESS2 peptide in the syringe; 25 °C, 20 mM NaPi pH 7.1, 1 mM DTT, 10 µM EDTA. Background: In ITC the heat of successive injections is recorded.

Consider RPRFNRENKVSPADAAKKAL [ESS2 peptide], for which the Kd was 700 nM and the stoichiometry N worked out at 1.

For orientation: Kd means the constant that tells how readily two partners part at equilibrium. Low readings indicate a tighter complex, high ones a looser complex. What is called stoichiometry N is a count of units in the complex or per binding partner.
